assay: soluble on expression in E. coli; label from the status in PepcDB or PDB records

Sequence	soluble on expression in E. coli
GLGEKKEGHFSALPSLPVGSHAKVSSPQPRGPRYAEGTFISDYSIAMDKIHQQDFVNWLLAQKGKKNDWKHNITQREARALELASQANRKEEEAVEPQSSPAKNPSDEDLLRDLLIQELLACLLDQTNLCRLRSR	soluble
MAHHHHHHMSRKRVRAEDIHYWLLKSEPHKFSIDDLAKQKTSPWDGVRNYAARNNMRAMSVGDKVLFYHSNTKEPGVAGLAEVVRLAYDDFTALDKTSEYFDPKATKEKNPWKMVDVKFVARWDTVLTLHELKSRRELQKMALFTQRRLSVQPVSASEYAYILRMNEEQQRK	soluble
MAKIGFVSLGCPKALVDSEQILSRLKALGYETSPSYEEAELVIVNTCGFINEAVEESLEAIGEALKENGKVVVTGCLGARPEKIRERHPQVLAVTGPGEVERVLEAVQEVLPAPRDPFLDLIPPQVKLTPRHYAYVKLSEGCDHRCSFCIIPKLRGRLRSRDAADVLAEAARLVATGTKELLLVAQDLSAYGVDLGHRESLWGDRPVRAELKDLLTHMAELGVWIRLHYVYPYPHVKDLLPLMAEGKVLPYLDVPLQHASPRILRLMRRPGGYESHLKTLKAWREVVPELALRSTFIVGFPGETEEDFQILLDFLEEAELDRVGVFAYSPVEGAEANRLPDPVPEEVKEERKARLLEVQARVSLRKNQRFVGKTLEVLVDELPEPGLAVGRTYRDAPGVDGVVYVETDGTVRVGERIPVRILRADTYDLHGVQAAAALEHHHHHH	soluble
VDLGGVRRRISLMARQHGPTAQRHVASPMTVDIARLGRRPGAMFELHDTVHSPARIGLELIAIDQGALLDLDLRVESVSEGVLVTGTVAAPTVGECARCLSPVRGRVQVALTELFAYPDSATDETTEEDEVGRVVDETIDLEQPIIDAVGLELPFSPVCRPDCPGLCPQCGVPLASEPGHRHEQIDPRWAKLVEMLGPESDTLRGER	not soluble
MHIMVTQGGLMSLSIVHTRAALGVNAPPITVEVHISKGLPGLTMVGLPETTVKEARDRVRSAIINSGYEYPAKKITINLAPADLPKEGGRYDLPIAIALLAASEQLTANKLDEYELVGELALTGALRGVPGAISSATEAIKSGRKIIVAKDNEDEVGLINGEGCLIADHLQAVCAFLEGKHALERPKPTDAVSRALQHDLSDVIGQEQGKRGLEITAAGGHNLLLIGPPGTGKTMLASRINGLLPDLSNEEALESAAILSLVNAESVQKQWRQRPFRSPHHSASLTAMVGGGAIPGPGEISLAHNGVLFLDELPEFERRTLDALREPIESGQIHLSRTRAKITYPARFQLVAAMNPSPTGHYQGNHNRCTPEQTLRYLNRLSGPFLDRFDLSLEIPLPPPGILSKTVVPGESSATVKQRVMAARERQFKRQNKLNAWLDSPEIRQFCKLESEDAMWLEGTLIHLGLSIRAWQRLLKVARTIADIDQSDIITRQHLQEAVSYRAIDRLLIHLQKLLT	not soluble
MNEIHQPLARRVWRSNVDEEMARMAECLKRFPLIAFDTEYPGIIFRTYFDSSSDECYRAMKGNVENTKLIQCGFTLFNAKGEIGGVWEINFSNFGDPSDTRNELSIEFLRRHGLDLQKIRDEGVDMFGYGFFPKLMTVFRSQKHVEFVTFQGAYDFAYFLSILNHGKLPETHGEFATEVVKVFGQVYDTKVMAGFCEGLGEHLGLSKLAQLLQITRVGRAHHAGSDSLMTALVFIKLKHVYEDSRFARGLIYGIGKSNLVAAPAPAPVPEPTLPLMCQQNVASYPVFHNGYVQNYEQPQLVSYDPSGAPWAFCNATGTYVQLTHLPASTFAYPSQTPSATVDYLGPVPNYYNNNACYVVE	soluble
MDAVRQSFQQLQNELRRDWCGIEAGGLASDYDILVVPSLSLDAHELQKISGVLFYEERLLFSLIRLRDPRTRVIYVTSEPLPPLVIDYYLQLLPGIPFSHARDRLLLLSTCDSSLKPLTQKILERPRLLERIRRALRPGSSFMTCFNSSPLERELSVALRVPLFAADPDLLEWGTKAGSRSLFAECGLPHPAGSPLMDSVEDLAAAAAELWQDQPQAQRFVIKLNQGFSGEGNALLDLRPIAQQSPDRVGLTAASQAIAQQFPVMRFQAAHETWQNFQGRITDLGAIAELFIEGEVKRSPSVQGCIHPSGQVEILSTHDQILGGPDGQIYLGCRFPADPAYRLQLQKWGEQIGEALAQRGALERFGVDFVAVNQGGDHWELQAIEINLRKGGTTHPFMTLKYLTNGYYDPQSGQFCSELGQPKYYVATDNLQSPRYRGVLPQDLMDIIAANQLHFDSSTKTGTVFHLMGCLSQYGKLGLTSIGNSPEQAQALYDEVVSVLDRETDPALEHHHHHH	soluble
